Assay results published in EP2004352B1 (Palatin Technologies, Inc., dated 2012).
Bridge positions count the residues as written; N and C are the ends.

Experiments:
[1] = target: T1, human natriuretic peptide receptor A (NPRA) (human, UniProt P16066 33-1061); assay: competition with [125I]-ANP on HEK-hNPRA membrane homogenates
T1 construct: whole, on cells; the cGMP assay used whole HEK-hNPRA cells; also called hNPRA; HEK-hNPRA cells
T1 sequence (looked up): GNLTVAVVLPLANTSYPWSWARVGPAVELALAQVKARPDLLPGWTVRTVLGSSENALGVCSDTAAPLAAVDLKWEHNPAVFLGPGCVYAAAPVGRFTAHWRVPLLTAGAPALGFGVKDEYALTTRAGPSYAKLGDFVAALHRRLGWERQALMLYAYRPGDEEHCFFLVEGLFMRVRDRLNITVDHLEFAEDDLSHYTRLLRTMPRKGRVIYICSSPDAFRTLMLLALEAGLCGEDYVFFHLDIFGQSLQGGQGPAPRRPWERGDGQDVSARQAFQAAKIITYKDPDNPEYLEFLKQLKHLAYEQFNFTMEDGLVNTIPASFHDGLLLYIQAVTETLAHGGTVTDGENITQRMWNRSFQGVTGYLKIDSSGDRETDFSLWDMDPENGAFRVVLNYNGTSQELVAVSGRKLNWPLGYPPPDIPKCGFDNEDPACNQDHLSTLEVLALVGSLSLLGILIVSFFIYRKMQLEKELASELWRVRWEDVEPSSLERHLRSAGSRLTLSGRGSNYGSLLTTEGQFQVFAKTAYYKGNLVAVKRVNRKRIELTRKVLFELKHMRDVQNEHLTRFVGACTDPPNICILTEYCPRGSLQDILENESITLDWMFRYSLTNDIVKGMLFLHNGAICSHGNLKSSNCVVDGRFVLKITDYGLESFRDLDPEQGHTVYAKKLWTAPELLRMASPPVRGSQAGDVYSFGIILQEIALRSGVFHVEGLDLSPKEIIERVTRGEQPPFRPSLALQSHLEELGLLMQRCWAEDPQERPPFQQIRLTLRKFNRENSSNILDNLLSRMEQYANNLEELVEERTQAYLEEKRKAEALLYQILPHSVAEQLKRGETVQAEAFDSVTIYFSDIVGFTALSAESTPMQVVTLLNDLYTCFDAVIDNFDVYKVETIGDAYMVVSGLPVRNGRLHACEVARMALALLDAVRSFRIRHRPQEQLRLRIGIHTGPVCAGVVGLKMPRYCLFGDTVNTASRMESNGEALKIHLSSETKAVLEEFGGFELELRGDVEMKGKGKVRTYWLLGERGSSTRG

[2] = target: T1, human natriuretic peptide receptor A …; assay: cell-based or functional assay

Ki [1]: 0.6 nM
EC50 (cGMP accumulation) [2]: 3.3 nM
B1: mini-ANP, H-Met-cyclo(Cys-His-Phe-Gly-Gly-Arg-Met-Asp-Arg-Ile-Ser-Cys)-Tyr-Arg-NH2 (peptide)
peptide: H-MCHFGGRMDRISCYR-NH2
modifications: disulfide 2-13
SMILES: CC[C@H](C)[C@@H]1NC(=O)[C@H](CCCNC(=N)N)NC(=O)[C@H](CC(=O)O)NC(=O)[C@H](CCSC)NC(=O)[C@H](CCCNC(=N)N)NC(=O)CNC(=O)CNC(=O)[C@H](Cc2ccccc2)NC(=O)[C@H](Cc2c[nH]cn2)NC(=O)[C@@H](NC(=O)[C@@H](N)CCSC)CSSC[C@@H](C(=O)N[C@@H](Cc2ccc(O)cc2)C(=O)N[C@@H](CCCNC(=N)N)C(N)=O)NC(=O)[C@H](CO)NC1=O
notes: also called min-ANP; parent polypeptide
